# Source: patent US20240327477A1, “COMPOSITIONS AND METHODS FOR THE TREATMENT OF TDP-43 PROTEINOPATHIES” (SOLA BIOSCIENCES LLC, priority 2020, published 2024)
# B1: Construct 2: scFv(3B12A)-only control; binds TDP-43 (protein)
# scFv: MGTGSEFDIAAAEVQLQQSGAELVKPGASVKLSCTASGFNIKDYYMHWVKQRTEQGLEWIGRIDPEDGETKYAPKFQGKATITADTSSNTAYLQLSSLTSEDTAVYYCTIIYYYGSRYVDYWGQGTTLTVSGGGGSGGGGSGGGGSEIVLTQSPTTMAASPGEKITITCSASSSISSSYLHWYQQKPGFSPKLLIYRTSNLASGVPARFSGSGSGTSYSLTIGTMEAEDVATYYCQQGSSIPLTFGSGTKLEI
# B2: Construct 16: comprises a J domain without the consensus HPD sequence (SEQ ID NO: 16), fused to scFv(3B12A) (protein)
# chain: MGQDYYSVLGITRNSEDAQIKQAYRRLALKHHPLKSNEPSSAEIFRQIAEAYDVLSDPMKRGIYDKFGEEGLKGGDIGGGGSGGGGSGGGGSGGGGSAAAEVQLQQSGAELVKPGASVKLSCTASGFNIKDYYMHWVKQRTEQGLEWIGRIDPEDGETKYAPKFQGKATITADTSSNTAYLQLSSLTSEDTAVYYCTIIYYYGSRYVDYWGQGTTLTVSGGGGSGGGGSGGGGSEIVLTQSPTTMAASPGEKITITCSASSSISSSYLHWYQQKPGFSPKLLIYRTSNLASGVPARFSGSGSGTSYSLTIGTMEAEDVATYYCQQGSSIPLTFGSGTKLEI
# B3: 2 (protein)
# scFv: B1 scFv
# B4: 11 (protein)
# chain: MSVVGLDVGSQSCYIAVARAGGIETIANEFSDRCTPSVISFGSKNRTIGVAAKNQQITHANNTVSNFKRFHGRAFNDPFIQKEKENLSYDLVPLKNGGVGIKVMYMGEEHLFSVEQITAMLLTKLKETAENSLKKPVTDCVISVPSFFTDAERRSVLDAAQIVGLNCLRLMNDMTAVALNYGIYKQDLPSLDEKPRIVVFVDMGHSAFQVSACAFNKGKLKVLGTAFDPFLGGKNFDEKLVEHFCAEFKTKYKLDAKSKIRALLRLYQECEKLKKLMSSNSTDLPLNIECFMNDKDVSGKMNRSQFEELCAELLQKIEVPLYSLLEQTHLKVEDVSAVEIVGGATRIPAVKERIAKFFGKDISTTLNADEAVARGCALQCAILSPAFKVREFSVTDAVPFPISLIWNHDSEDTEGVHEVFSRNHAAPFSKVLTFLRRGPFELEAFYSDPQGVPYPEAKIGRFVVQNVSAQKDGEKSRVKVKVRVNTHGIFTISTASMVEKVPTEENEMSSEADMECLNQRPPENPDTDANEKKVDQPPEAKKPKIKVVNVELPIEANLVWQLGKDLLNMYIETEGKMIMQDKLEKERNDAKNAVEEYVYEFRDKLCGPYEKFICEQDHQNFLRLLTETEDWLYEEGEDQAKQAYVDKLEELMKIGTPVKVRFQEAEERPKMFEELGQRLQHYAKIAADFRNKDEKYNHIDESEMKKVEKSVNEVMEWMNNVMNAQAKKSLDQDPVVRAQEIKTKIKELNNTCEPVVTQPKPKIESPKLERTPNGPNIDKKEEDLEDKNNFGAEPPHQNGECYPNEKNSVNMDLD
# B5: 15 (protein)
# chain: MDYYKILGVDKNASEDEIKKAYRKRALMHHPDRHSGASAEVQKEEEKKFKEVGEAFTILSDPKKKTRYDSGQDIGGGGSGGGGSGGGGSGGGGSAAAEVQLQQSGAELVKPGASVKLSCTASGFNIKDYYMHWVKQRTEQGLEWIGRIDPEDGETKYAPKFQGKATITADTSSNTAYLQLSSLTSEDTAVYYCTIIYYYGSRYVDYWGQGTTLTVSGGGGSGGGGSGGGGSEIVLTQSPTTMAASPGEKITITCSASSSISSSYLHWYQQKPGFSPKLLIYRTSNLASGVPARFSGSGSGTSYSLTIGTMEAEDVATYYCQQGSSIPLTFGSGTKLEI
# B6: 16 (protein)
# chain: B2 chain
# B7: 19 (protein)
# chain: MGKDYYQTLGLARGASDEEIKRAYRRQALRYHPDKNKEPGAEEKFKEIAEAYDVLSDPRKREIFDRYGEEGLKGSEVQLQQSGAELVKPGASVKLSCTASGFNIKDYYMHWVKQRTEQGLEWIGRIDPEDGETKYAPKFQGKATITADTSSNTAYLQLSSLTSEDTAVYYCTIIYYYGSRYVDYWGQGTTLTVSGGGGSGGGGSGGGGSEIVLTQSPTTMAASPGEKITITCSASSSISSSYLHWYQQKPGFSPKLLIYRTSNLASGVPARFSGSGSGTSYSLTIGTMEAEDVATYYCQQGSSIPLTFGSGTKLEI
# Legend:
# Assay type in all cases: cell-based
# GFP-TDP43CTF = molecular target: T1, GFP-TDP43CTF (Homo sapiens, UniProt Q13148); assay: Fluorescence microscopy of GFP-TDP43CTF aggregation (GFP foci) in transfected HEK293 cells; settings: HEK293 cells; for % Aggregation (normalized to GFP-TDP43CTF alone): GFP-TDP43CTF reporter
# T1 construct: expressed in transfected cells; host or cells: HEK293
# Description: (§1) Expression vector plasmids encoding various protein constructs were transfected into HEK293 cells with Lipofectamine 3000 transfection reagent (Thermo Fisher Scientific). Cell lysates were analyzed for expressed proteins using immunoblot assays. Samples of culture media were centrifuged to remove debris prior to analysis. Cells were lysed in a lysis buffer (10 mM Tris-HCl, pH 8.0, 150 mM NaCl, 10 mM EDTA, 2% SDS) containing 2 mM PMSF and protease cocktail (Complete Protease Inhibitor Cocktail; Sigma). After brief sonication, the samples were analyzed for expressed proteins using immunoblot assays. For immunoblot analysis, samples were boiled in an SDS-sample buffer and run on polyacrylamide electrophoresis. Thereafter, the separated protein bands were transferred to a PVDF membrane.
# (§2) In some instances, aggregation of TDP-43 (full-length of C-terminal fragment) GFP reporter constructs (described below) were detected in vivo using fluorescence microscopy. Cultured cells expressing the reporter constructs as well as the fusion protein comprising the J domain and TDP-43-binding domain were washed with PBS and fixed with 4% paraformaldehyde in PBS for 5 minutes. After three 5-min washes with PBS, nuclear DNA was stained with DAPI. Percentage of cells containing TDP-43 (GFP foci) in transfected cells was counted.
# We first investigated whether the fusion molecule of the present invention targeting TDP-43 ameliorates its aggregation in cultured cells. To this end, we generated GFP-based reporter constructs GFP-TDP43 and GFP-TDP43, wherein GFP was fused at its C-terminus to either the full-length human TDP-43 protein or the C-terminal fragment TDP-43 which is known to form cytoplasmic aggregation and cytotoxicity (See Table 8 below). HEK293 cells were cultured and transfected with the plasmids encoding the full-length TDP43 or the C-terminal fragment of TDP43, containing the C-terminal 207 amino acids TDP-43 (amino acids 208-414 of human TDP-43) as a GFP fusion [GFP-TDP43FL (SEQ ID NO: 101) or GFP-TDP43CTF (SEQ ID NO: 102)].
# GFP-TDP43FL [1] = molecular target: T2, GFP-TDP43FL (Homo sapiens, UniProt Q13148); assay: Immunoblot (anti-GFP) of reporter level in cell extracts; settings: cell extracts (FIG. 5)
# T2 construct: expressed in transfected cells; host or cells: HEK293
# Description: as §1
# (§3) Expressed proteins were detected using a chemiluminescent signal. Briefly, blots were reacted with a primary antibody capable of binding the particular epitope (e.g., GFP). After rinsing away the unreacted primary antibody, a secondary, enzyme-linked antibody (e.g., HRP-linked anti-lgG antibody) was allowed to react with the primary antibody molecules bound to the blots. Following rinsing, a chemiluminescent reagent was added, and the resultant chemiluminescent signals in the blots were captured on X-ray film.
# [2] = molecular target: T3, phosphorylated GFP-TDP43CTF reporter (Homo sapiens, UniProt Q13148); assay: Immunoblot with anti-phospho TDP43 antibody (cell extracts and fractions)
# T3 construct: expressed in transfected cells; host or cells: HEK293
# From the text: Cells expressing either GFP-TDP43FL (lanes 1 and 7) or GFP-TDP43CTF (lanes 2-6, 8-12) were co-transfected with Construct 3 (lanes 3 and 9), Construct 17 (lanes 4 and 10), Construct 18 (lanes 5 and 11) and Construct 19 (lanes 6 and 12). Soluble fractions (lanes 1-6) and insoluble fractions (lanes 7-12) were probed with anti-phospho TDP43 antibodies.
# as §1, §3
# Transfected HEK293 cells are homogenized in RIPA buffer (50 mM Tris, pH7.5, 150 mM NaCl, 0.1% NP-40, 0.5% sodium deoxycholate, 0.1% SDS) supplemented with protease inhibitor cocktail, 2 mM PMSF, 10 mM NaF, and 2 mM Na3VO4. After brief sonication, protein concentration is measured by BCA assay kit (Pierce). […]
# GFP-TDP43FL [3] = molecular target: T2, GFP-TDP43FL; assay: Fluorescence microscopy of GFP-TDP43FL aggregation (GFP foci) in transfected HEK293 cells; settings: GFP-TDP43FL reporter, HEK293 cells, Table 10 (FIG. 3/4)
# Description: as §1
# as §2, with “counted. […]” for “counted.”
# [4] = molecular target: T3, phosphorylated GFP-TDP43CTF reporter; assay: Immunoblot with anti-phospho TDP43 antibody (cell extracts and fractions); settings: cell extracts, anti-phosphoTDP43 antibody, Table 13 (FIG. 12)
molecule,measurement,setting,value
B1,aggregation of GFP-TDP43CTF reporter in cells (in words),GFP-TDP43CTF; vs reporter alone,did not reduce aggregation
same,"levels of the full-length reporter construct (GFP-TDP43FL), anti-GFP immunoblot (in words)",GFP-TDP43FL [1],No differences
B2,"ability to reduce aggregation of the GFP-TDP43CTF reporter construct (in words, with Tables 13 and 14)",[2]; HEK293 cells,not able to reduce aggregation
B3,% Aggregation (normalized to GFP-TDP43CTF alone),GFP-TDP43CTF; Table 10 (FIG. 3/4),80.05%
same,% Aggregation (normalized to GFP-TDP43CTF alone),GFP-TDP43CTF; Table 12 (FIG. 8/9A),98.40%
same,% Aggregation (normalized to GFP-TDP43CTF alone),GFP-TDP43FL [3],5.86%
same,% Phospho-TDP43 density (normalized to GFP-TDP43CTF alone),[4],122.81%
B4,% Aggregation (normalized to GFP-TDP43CTF alone),GFP-TDP43CTF; Table 12 (FIG. 8/9A),115.34%
B5,% Phospho-TDP43 density (normalized to GFP-TDP43CTF alone),[4],47.89%
B6,% Phospho-TDP43 density (normalized to GFP-TDP43CTF alone),[4],106.49%
B7,% Phospho-TDP43 density (normalized to GFP-TDP43CTF alone) Insoluble fraction,"[2]; insoluble fraction, Table 14 (FIG. 14)",22.77%
same,% Phospho-TDP43 density (normalized to GFP-TDP43CTF alone) Soluble fraction,"[2]; soluble fraction, Table 14 (FIG. 14)",11.20%
